Laboratory results taken from US20140011978A1 (EPFL TTO, published 2014).

B1: TNC III1-5 (other)
chain: EVSPPKDLVVTEVTEETVNLAWDNEMRVTEYLVVYTPTHEGGLEMQFRVPGDQTSTIIQELEPGVEYFIRVFAILENKKSIPVSARVATYLPAPEGLKFKSIKETSVEVEWDPLDIAFETWEIIFRNMNKEDEGEITKSLRRPETSYRQTGLAPGQEYEISLHIVKNNTRGPGLKRVTTTRLDAPSQIEVKDVTDTTALITWFKPLAEIDGIELTYGIKDVPGDRTTIDLTEDENQYSIGNLKPDTEYEVSLISRRGDMSSNPAKETFTTGLDAPRNLRRVSQTDNSITLEWRNGKAAIDSYRIKYAPISGGDHAEVDVPKSQQATTKTTLTGLRPGTEYGIGVSAVKEDKESNPATINAATELDTPKDLQVSETAETSLTLLWKTPLAKFDRYRLNYSLPTGQWVGVQLPRNTTSYVLRGLEPGQEYNVLLTAEKGRHKSKPARVKASTEQAGGGSHHHHHH
notes: The secreted protein in the assays lacks the leader; also called TG-TNC III1-5; engineered TNC III1-5
B2: NT-3 (ligand, UniProt P20783 139-257, looked up)
chain: YAEHKSHRGEYSVCDSESLWVTDKSSAIDIRGHQVTVLGEIKTGNSPVKQYFYETRCKEARPVKNGCRGIDDKHWNSQCKTSQTYVRALTSENNKLVGWRWIRIDTSCVCALSRKIGRT
B3: PDGF-BB (ligand, UniProt P01127 82-190, looked up)
chain: SLGSLTIAEPAMIAECKTRTEVFEISRRLIDRTNANFLVWPPCVEVQRCSGCCNNRNVQCRPTQVQLRPVQVRKIEIVRKKPIFKKATVTLEDHLACKCETVAAARPVT
notes: The name implies a homodimer of B chains

Legend:
HGF = HGF (UniProt P14210 32-728); experiment: ELISA: cytokine coated (50 nM), 100 nM TNC III1-5 in solution, HRP-anti-His, A450; black bars without, white bars with 4 µM heparin
Sequence of HGF (P14210 32-728 limits assumed): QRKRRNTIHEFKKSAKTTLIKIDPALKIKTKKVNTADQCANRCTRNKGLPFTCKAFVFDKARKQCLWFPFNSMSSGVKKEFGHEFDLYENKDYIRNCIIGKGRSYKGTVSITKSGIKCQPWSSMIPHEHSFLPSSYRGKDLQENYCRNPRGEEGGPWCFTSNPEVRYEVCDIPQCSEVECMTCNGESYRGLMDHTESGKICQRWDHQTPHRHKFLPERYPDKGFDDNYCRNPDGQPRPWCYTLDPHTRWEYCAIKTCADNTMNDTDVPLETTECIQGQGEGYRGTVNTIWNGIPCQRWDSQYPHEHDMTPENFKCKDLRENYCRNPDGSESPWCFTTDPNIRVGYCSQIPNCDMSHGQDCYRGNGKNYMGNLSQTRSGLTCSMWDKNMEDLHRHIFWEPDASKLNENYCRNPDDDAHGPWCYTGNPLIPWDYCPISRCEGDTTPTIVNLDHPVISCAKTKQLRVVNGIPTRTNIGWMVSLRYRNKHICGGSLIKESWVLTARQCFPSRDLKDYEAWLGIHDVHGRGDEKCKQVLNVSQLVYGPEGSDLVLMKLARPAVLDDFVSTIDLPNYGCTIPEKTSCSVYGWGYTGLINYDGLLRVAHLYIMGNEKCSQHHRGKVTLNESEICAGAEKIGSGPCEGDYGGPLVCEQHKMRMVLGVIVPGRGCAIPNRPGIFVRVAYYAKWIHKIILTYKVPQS
Protocol: (§1) ELISA plates were coated with cytokines or BSA and further incubated with TNC III1-5 to analyze binding of TNC III1-5 to a wide variety of cytokines. […] A large amount of heparin (4 μM) impaired binding of TNC III1-5 to these cytokines. Results are depicted in FIG. 3. Method: 50 nM of cytokine was coated for (1 hr, 37° C.). After blocking with 2% BSA (1 hr, RT). 100 nM TNC III1-5 was applied in PBST (0.05% tween, 0.1% bovine serum albumin (BSA)) (1 hr, RT). TNC III1-5 was detected with horseradish peroxidase (HRP)-anti-HIS in PBST (1 hr, RT) and developed with 3,3′,5,5′-tetramethylbenzidine (TMB), a soluble colorimetric HRP […]. Addition of sulfuric acid stop solution changes the color to yellow, enabling accurate measurement of the intensity at 450 nm using a spectrophotometer or plate reader. […] Heparin (4 μM) was added to TNC III1-5 to test the effect of blocking the heparin binding site of TNC III1-5, which has been defined as domain TNC III5 (Weber, Zimmermann, et al., 1995).

FGF-9 = experiment: ELISA: cytokine coated (50 nM), 100 nM TNC III1-5 in solution, HRP-anti-His, A450
Protocol: as §1

BSA [1] = molecular target: T1, BSA (bovine, UniProt P02769); experiment: ELISA: PDGF-BB or BSA coated, TNC III1-5 in solution at 0 to 1.2 µM, A450
T1 construct: negative control; also called bovine serum albumin
T1 sequence (P02769 25-607 limits assumed): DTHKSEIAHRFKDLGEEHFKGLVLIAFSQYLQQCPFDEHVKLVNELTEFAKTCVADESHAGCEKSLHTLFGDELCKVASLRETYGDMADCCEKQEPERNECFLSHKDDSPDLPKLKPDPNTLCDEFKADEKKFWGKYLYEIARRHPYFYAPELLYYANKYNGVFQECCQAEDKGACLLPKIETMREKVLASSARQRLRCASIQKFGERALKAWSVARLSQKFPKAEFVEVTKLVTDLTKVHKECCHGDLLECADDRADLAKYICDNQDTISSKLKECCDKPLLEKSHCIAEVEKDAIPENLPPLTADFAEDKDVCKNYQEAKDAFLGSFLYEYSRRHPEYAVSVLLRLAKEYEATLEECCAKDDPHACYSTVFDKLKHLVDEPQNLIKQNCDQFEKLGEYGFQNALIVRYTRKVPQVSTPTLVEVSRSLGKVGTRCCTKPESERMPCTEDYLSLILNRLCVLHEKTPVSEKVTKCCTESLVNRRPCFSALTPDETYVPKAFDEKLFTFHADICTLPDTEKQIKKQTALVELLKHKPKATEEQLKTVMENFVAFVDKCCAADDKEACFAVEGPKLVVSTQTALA
Protocol: as §1, with “100 nM TNC III1-5 was applied in PBST (0.05% tween, 0.1% bovine serum albumin (BSA)) (1 hr, RT).” left out

TNC III1-5 [2] = molecular target: B1; experiment: SPR, TNC III1-5 on the chip, cytokine injected, BSA reference channel
Protocol: (§2) Surface plasmon resonance (SPR) was done to quantify the affinity of specific cytokines to TNC III1-5. […] Method: Surface plasmon resonance chips were functionalized with TNC III1-5 or BSA and cytokines were injected over the chips at different concentrations. The chips contained gold with free carboxyl groups that were activated to bind TNC III1-5 in one channel and BSA as a reference protein in another channel. The specific response of a cytokine to TNC III1-5 (in RU) was obtained relative to the response to BSA. Results are depicted in FIG. 5.

TNC III1-5 [3] = molecular target: B1; experiment: SPR: TNC III1-5 on the chip, BSA in the reference channel, cytokine injected at rising concentrations; Langmuir fit (legend paragraph 11 says TNC III5, Example 5 paragraph 115 says TNC III1-5)
Protocol: as §2

BSA [4] = molecular target: T1, BSA; experiment: ELISA: GST-fused TNC domains, GST and BSA coated, 2 nM PDGF-BB in solution, anti-PDGF-BB antibody and HRP secondary, A450
Protocol: An ELISA was performed to test the affinity of different domains present in TNC1-5 to PDGF-BB as an example cytokine that has shown to bind TNC III1-5. Domain TNC III5 was defined to be responsible for cytokine binding. Method: ELISA plates were coated with individual TNC domains fused to GST, as well as GST and BSA. Wells were blocked with BSA and then incubated with 2 nM PDGF-BB. Binding of PDGF-BB was detected using an anti-PDGF-BB antibody and then a secondary horseradish peroxidase conjugated antibody.

Row | Binder | binding result (HGF) | binding result (FGF-9) | binding result (BSA [1]) | Kd (TNC III1-5 [2]) | koff (TNC III1-5 [3]) | kon (TNC III1-5 [3]) | binding result (BSA [4])
1 | B1 | binds | no binding (tested: 100 nM) | no binding (tested: 1.2 µM) | – | – | – | –
2 | B2 | – | – | – | 21 nM | 0.00106 s⁻¹ | 50700 M⁻¹ s⁻¹ | –
3 | B3 | – | – | – | 3.9 nM | 0.0202 s⁻¹ | 5.23e+06 M⁻¹ s⁻¹ | no binding (tested: 2 nM PDGF-BB)
